What was measured:
[1] = target: T1, Reb1 (Saccharomyces cerevisiae) (UniProt P21538); test: EMSA; conditions: 11.87 mM HEPES-KOH pH 7.9, 3 mM Tris-Cl, 96.67 mM NaCl, 3.33 mM KCl, 5.3 mM MgCl2, 0.13 mM Mg acetate, 1.33 uM ZnCl2, 0.05% NP-40, 10% glycerol, 100 ug/mL BSA …
T1 sequence: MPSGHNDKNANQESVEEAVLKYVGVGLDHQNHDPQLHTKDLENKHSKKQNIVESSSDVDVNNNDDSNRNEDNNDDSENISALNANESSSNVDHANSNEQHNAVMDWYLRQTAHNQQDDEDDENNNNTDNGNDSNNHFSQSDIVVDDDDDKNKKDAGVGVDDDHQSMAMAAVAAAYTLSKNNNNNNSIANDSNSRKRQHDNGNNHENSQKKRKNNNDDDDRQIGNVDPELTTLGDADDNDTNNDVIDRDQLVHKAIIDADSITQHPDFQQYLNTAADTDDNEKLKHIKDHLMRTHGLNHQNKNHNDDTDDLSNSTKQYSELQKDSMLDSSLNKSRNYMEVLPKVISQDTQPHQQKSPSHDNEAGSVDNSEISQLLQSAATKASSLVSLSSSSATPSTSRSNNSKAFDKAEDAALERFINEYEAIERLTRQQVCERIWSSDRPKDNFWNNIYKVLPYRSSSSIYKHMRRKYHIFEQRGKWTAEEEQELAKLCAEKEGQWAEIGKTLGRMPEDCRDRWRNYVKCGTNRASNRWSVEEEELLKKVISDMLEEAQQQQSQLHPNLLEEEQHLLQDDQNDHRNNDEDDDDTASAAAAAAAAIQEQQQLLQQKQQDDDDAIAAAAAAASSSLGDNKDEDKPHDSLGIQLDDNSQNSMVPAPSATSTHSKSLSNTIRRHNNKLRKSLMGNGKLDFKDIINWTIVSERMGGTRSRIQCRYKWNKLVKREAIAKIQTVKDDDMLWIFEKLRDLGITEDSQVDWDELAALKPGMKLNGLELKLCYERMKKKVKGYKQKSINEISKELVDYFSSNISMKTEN

[2] = target: T2, Abf1 (Saccharomyces cerevisiae) (UniProt P14164); test: EMSA; conditions: 11.87 mM HEPES-KOH pH 7.9, 3 mM Tris-Cl, 96.67 mM NaCl, 3.33 mM KCl, 5.3 mM MgCl2, 0.13 mM Mg acetate, 1.33 uM ZnCl2, 0.05% NP-40, 10% glycerol, 100 ug/mL BSA …
T2 sequence: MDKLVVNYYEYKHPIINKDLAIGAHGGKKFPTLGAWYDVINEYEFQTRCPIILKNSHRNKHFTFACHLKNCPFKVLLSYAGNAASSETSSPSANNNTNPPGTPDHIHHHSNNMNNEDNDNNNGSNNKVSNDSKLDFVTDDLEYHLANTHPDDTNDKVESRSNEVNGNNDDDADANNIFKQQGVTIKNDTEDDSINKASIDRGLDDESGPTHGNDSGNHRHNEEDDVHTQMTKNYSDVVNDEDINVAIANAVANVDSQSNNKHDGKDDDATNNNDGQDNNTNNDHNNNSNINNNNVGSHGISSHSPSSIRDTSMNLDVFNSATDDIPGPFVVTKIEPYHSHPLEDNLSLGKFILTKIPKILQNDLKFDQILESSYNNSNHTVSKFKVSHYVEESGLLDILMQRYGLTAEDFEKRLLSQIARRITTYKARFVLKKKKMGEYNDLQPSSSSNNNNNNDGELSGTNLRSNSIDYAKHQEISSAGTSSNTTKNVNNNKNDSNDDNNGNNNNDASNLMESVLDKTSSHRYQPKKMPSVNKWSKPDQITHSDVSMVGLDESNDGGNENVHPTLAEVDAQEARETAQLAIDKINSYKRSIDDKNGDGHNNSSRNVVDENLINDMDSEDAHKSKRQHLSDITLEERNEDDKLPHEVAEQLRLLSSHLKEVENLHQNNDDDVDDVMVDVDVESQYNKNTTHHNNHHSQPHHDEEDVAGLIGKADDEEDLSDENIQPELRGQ

Sequence | Kd [1] [nM] | Kd [2] [nM]
ACAGGATGTATATATCTGACACGTGCCTGGAGACTAGGGAGTAATCCCCTTGGCGGTTAAAACGCGGGGGACAGCGCGTACGTGCGTTTAAGCGGTGCTAGAGCTGTCTACGACCAATTGAGCGGCCTCGGCACCGGGATTCTCCAGGGCGGCCGGCCGGGTAACGCATCACCATGGTGATGACCGCGGACCTGCAGGCATGCAAGCTTGAGTATTCTATAGTGTCA (double strand) [NC-80/G-GC nucleosome] | 1.07 | 
ACAGGATGTATATATCTGACACGTGCCTGGAGACTAGGGAGTAATCCCCTTGGCGGTTAAAACGCGGGGGACAGCGCGTACGTGCGTTTAAGCGGTGCTAGAGCTGTCTACGACCAATTGAGCGGCCTCGGCACCGGGATTCTCCAGGGCGGCCGCTTATCGTATAAAGTGATAGGGTGATGACCGCGGACCTGCAGGCATGCAAGCTTGAGTATTCTATAGTGTCA (double strand) [NC-80/A3G nucleosome] |  | 2.22
ACAGGATGTATATATCTGACACGTGCCTGGAGACTAGGGAGTAATCCCCTTGGCGGTTAAAACGCGGGGGACAGCGCGTACGTGCGTTTAAGCGGTGCTAGAGCTGTCTACGACCAATTGAGCGGCCTCGGCACCGGGATTCTCCAGGGCGGCCGCTTATCGTATTGCATGATAGGGTGATGACCGCGGACCTGCAGGCATGCAAGCTTGAGTATTCTATAGTGTCA (double strand) [NC-80/T-G nucleosome] |  | 2.49
ACAGGATGTATATATCTGACACGTGCCTGGAGACTAGGGAGTAATCCCCTTGGCGGTTAAAACGCGGGGGACAGCGCGTACGTGCGTTTAAGCGGTGCTAGAGCTGTCTACGACCAATTGAGCGGCCTCGGCACCGGGATTCTCCAGGGCGGCCGCTTATCGTATTGCATGATATGGTGATGACCGCGGACCTGCAGGCATGCAAGCTTGAGTATTCTATAGTGTCA (double strand) [NC-80/T-T nucleosome] |  | 2.52
ACAGGATGTATATATCTGACACGTGCCTGGAGACTAGGGAGTAATCCCCTTGGCGGTTAAAACGCGGGGGACAGCGCGTACGTGCGTTTAAGCGGTGCTAGAGCTGTCTACGACCAATTGAGCGGCCTCGGCACCGGGATTCTCCAGGGCGGCCGGACGGGTAACGCATCACCATGGTGATGACCGCGGACCTGCAGGCATGCAAGCTTGAGTATTCTATAGTGTCA (double strand) [NC-80/G-TC nucleosome] | 1.11 | 
ACAGGATGTATATATCTGACACGTGCCTGGAGACTAGGGAGTAATCCCCTTGGCGGTTAAAACGCGGGGGACAGCGCGTACGTGCGTTTAAGCGGTGCTAGAGCTGTCTACGACCAATTGAGCGGCCTCGGCACCGGGATTCTCCAGGGCGGCCGCCCGGGTAACGCATCACCATGGTGATGACCGCGGACCTGCAGGCATGCAAGCTTGAGTATTCTATAGTGTCA (double strand) [NC-80/G-GG nucleosome] | 1.06 | 
ACAGGATGTATATATCTGACACGTGCCTGGAGACTAGGGAGTAATCCCCTTGGCGGTTAAAACGCGGGGGACAGCGCGTACGTGCGTTTAAGCGGTGCTAGAGCTGTCTACGACCAATTGAGCGGCCTCGGCACCGGGATTCTCCAGGGCGGCCGCTCGGGTAAAGCATCACCATGGTGATGACCGCGGACCTGCAGGCATGCAAGCTTGAGTATTCTATAGTGTCA (double strand) [NC-80/T-AG nucleosome] | 5.94 | 
ACAGGATGTATATATCTGACACGTGCCTGGAGACTAGGGAGTAATCCCCTTGGCGGTTAAAACGCGGGGGACAGCGCGTACGTGCGTTTAAGCGGTGCTAGAGCTGTCTACGACCAATTGAGCGGCCTCGGCACCGGGATTCTCCAGGGCGGCCGCTAATCGTATTGCATGATATGGTGATGACCGCGGACCTGCAGGCATGCAAGCTTGAGTATTCTATAGTGTCA (double strand) [NC-80/A-T nucleosome] |  | 2.39
